Assay results as given in the DeepSol protein solubility set.

test: soluble on expression in E. coli; label from the status in PepcDB or PDB records

Soluble on expression in E. coli, not soluble:
MGSDKIHHHHHHMKINMPENVQTILNKLHSNGYQAYIYGACIRDYLLGKEPINWDITTNALPNNTVVIFDENEGFTSIPSVEDYGIVTLHFKGESCQVNTFRTGEARRFADDISEDLLHKDFTMNSIAYNEQAGIVDPYNGVGDIEKRLIRCAQNPYEQMQEDSARILRAVRFESQLGFKIEAELLQAMKDLKDTVPASGSRVRNEFIQLLLSEQPSRSIRRLLELGLLERLIPELMPAIGFDTHSSYHDKDVFEHSLVVLDNTEPNLTLRLAALLHDIDKPNCLTIDEDGEGHCYGHASGGSEMAQAILGRLNFDRKTIQAVSSLIKEHMNDFGNISDLSIKRLIRRVGPDNIDRLFELQLADIKGSALSSRDPERITKIRNKCFEVLSRREPLTVHDLDISGYDLLSLGYPPGKKIGETMDYLLDQVIDNPSLNQRDTLIALLKNRK, MGSDKIHHHHHHMKISEVATPNFLLDLDQLEKNIDKIQQICTNNNKQLWPMLKTHKSTYIARLQKNAGASGFLVGTLDEGEALIKAGFEDIMLAYPYMGEVNINRIVTMASKINLICATDNIECAKAYSEAFSKSKIECKLLIIVDCGLHRFGVEPEKVVELATEISKLENIKIVGISSHPGQVYGCSSPEGVPDVCVQEDSSMEKAYKALTDNGFNIEIVASGSTPTVESEAACKTITAVRPGNYVYYDAIQIGLGCATEDMCALTVVCTVISKNSSGYYLIDCGSKCLGLDKGAHGNSSIVGYGRVCGHPELTIDSLSEEVGKIKVNGETDIKIGDRIRIIPNHSCSTANLTSNLLGFRGDTIEKVIEVDIRENSKQIIL, MGSDKIHHHHHHMKIVFLAPFGIRPKGTVVARMVPLAAELQALGHRVTIVAPPYTNPEDSGHTEEIRGVRLRNIRLAPGGAALSAPVMAWRMYRAAREEEPDLIHLFKPKGYGGLAAMLHLLTASRSSPLFLDTDDWEGRGGMNALHDYSPAQRLLFAFQEEWLPPRVRGVTVASRELEARIAAMGVAPERLLYLPNCVDDQPLGNGARVRARLGIDGNAPVVLLYTRFFEFSQEDLHRVFAGLSRKVPGIRFLVVGTGRNREEELLAAAARAEGFADSLHIAGWVEPDELPHWLAAGDVALYPFADTLVNRAKCPAKLTELMRAGVPVVADRVGQIAEYVEDGISGILCRPSAPDEMIARIAELLADPVRRRAVGTAGRERILSRFNWRDAAARLDAFYDNLTRRRNLA, MGSDKIHHHHHHMKIYLVGGAVRDSLLGLPVTEKDWVVVGATPEHLLAQGYQQVGKDFPVFLHPISRDEYALARTERKSGKGYTGFVCHAEPDVTLEQDLLRRDLTINAIARTERGDLIDPYHGRRDLDNRVLRHVSDAFSEDPLRVLRVARFAARFAHLGFQIAEETMALMQKMAHEGELAFLTPERVWKETEKALGTSSPDVYFQVLRDCGALAVLFPEIDNLYGVPAPAKWHPEIDTGIHTMMTVAMAARLSPDIDVRFATLCHDLGKGLTPPELWPRHLGHGPAGVKLVEALCQRLRVPNPIRDLAKLVAEYHDLVHTVQVLQPKTLLKLFDAIDVWRKPQRLEQLALTSEADARGRTSFEENPYPQGNYLREAFRVASQVSSASVVADGFKGIDVRNELARRRIHALADWKAQQPDVSSTS, MGSDKIHHHHHHMKKFLCFIMSVGLILSLVGCGKSGKTNIKVPAKSIDGKDSSISLDIMATNKFLYNVIKDISGNRHNVQFMFKNDIDVKQFDYTSDSINNVSKYNIFMYLGADFEPWASDFIGKLDKNSIATVDMSRGTKILNLDDKVQYGNITVEKNSYYWTDLNNYKTMLVNIKNSLEEKDPKSRDLYEKNFAAYIKKVNDCEKEFKGINDKLKGYTFVTNSSNFDYFFNYAGLDSVKVSEDELSKPDTSKELNDKLKDKEKICYIYSDDGSVQSNNAVIQKYKMKTLKFVTYDENSDYICIIKDNIKSMKELIK, MGSDKIHHHHHHMKKITKIEGNLANSFIKPKTRVVAYCRVSTDSNEQLVSLQAQKAHYETYIKANPEWEYAGLYYDEGISGTKKENRSDLLRMLSDCETGRIDLIITKSISRFARNTTDCLEMVRKLIDLGVHIYFEKENINTGSMESELMLSILSGLAESESISISENTKWAIQRRFQNGTFKISYPPYGYQNIDGQMIVNPKQAEVVKYIFAEVLSGKGTQKVANDLNQKGIPSKRRGRWTATTIRGILTNEKYTGDVILQKTYTDSHFNRHTNYGEKNMYLVENHHEAIISHEDFQAVDAILNQRAKEKSIEKRNSKYLNRYSFSSKIICSECGSTFKRRIHSSGRKYIAWCCSKHISNITECSMQFIRDDDIKTAFVTMMNKLIFGQKFILRPLLEGLRNQNNAASFHRIEELEIKIENNMEQSQVLTGLMAKGYLEPALYNKEKNSLVQERERLLAEKDQLTRFVNGNLAKVEEVNHLLRFATKSKMLTAYEDELFENYVEKIIVFSREEVGFELKCGITLKERLVN, MGSDKIHHHHHHMKKLVATAPRVAELVEYHDREVVEDEVKIKVQFASPKHGTEVVDFRGISPFIDEEFSPEWNLFVSRETNSARGIVFGEFQLGNMVVGEVVECGSKVTEYALGDIVCSYGPIMETVIVKAVDNYKLRKLPKGANWKNAVCYDPAQFAMSGVRDAHVRAGDYVVVVGLGAIGQIAIQLAKKAGASVVIGVDPLSHRREIAEKHGADATFDPITTDVGLEVKRLTGKLGADSIIETSGNAAALQAALRGIAYGGTISYVAFAKPFPEGFNLGREAHFNNAKIVFSRAASEPNPDYPRWDRKRIEETCWELLMNGYLDCTDIIDPVVPFADSAESYMKYVDQQPDLSIKMGITL, MGSDKIHHHHHHMKKNILHIHGFNSSPLSLKAEQTRKYMAKNFPNVGFYCPQLATTPANAMSQLEQLIETHDSNAKWYLIGSSLGGYFAHYLAKKYDCLAVLVNPAITPYELLHDYIGEQVNPYTEEVYQVTEDHMQQLKALEQTAPTIDCTEKNNYLVMVQTGDEVLNYQQAVEKYQYCRLIVQEGGDHSFINFDNCLPTISDFFQLDNTKRINSR, MGSDKIHHHHHHMKKRLLLNTDDYGWDLDANAAIIDLLQSDSIHNVTLLANYCDSDVLRAISPFQDRASLGIHVCLNSGQALSGSTRSTLHDACGNFYDSKTLFQRAFFGELNYSDVLLEIKSQYYYLSDHGIDITHADSHQHIHQYPFLSGMITQALHEIGVKNIRRCRPLEVKNIRRYLIYFFYQCTKNNLNKFNSPDVLVTDFTHSGFSFSTDVQPILKKLSLSHYSTIEWMCHPAREDKAGSYLQRKKEYDFLKKCDWDILLNGTGIERSQYRYI, MGSDKIHHHHHHMKKVTLLVLDGFGVGAMADCEKVKPEDVNANTYKHLREAVDIHIPTLYQLGLGNIVDHLDTARAAYGRCDLAHHGADTFMGHQELMGSKPGVPQKRLMSEVGATIKKNLEKHGYDVRDPVEGAPVLLVNEAVVVGDNLESEVGNIINVVGDFRKLSFEQTIEVGKVVRSSVDTSRVIVYGNKEKTSIDLILSTIKERHPGQWGVDSPKANVYGEGYQVLHLGYGVDYEKQFAHLAEKQRLPVYRIGKTADVIQASGYHNPVVSTRKVLEVYQHEYSKSERDSVFLVNVQETDLAGHKEDCLWYKEVIEEVDRFLASFIDELDEEDLLIITADHGNDPTIGHSNHTREQTPVIIVGPQVRPISIGTRQTMADLAATMADYMGVAPPQYGTSFLHQILR, MGSDKIHHHHHHMKLLILGNHTCGNRGDSAIMRGLLDAIRQQAPEAEMDVMSRFPVSSAWLQGRPIIADPLYQLSQKQQAAAGLNGRVKKVLRRRFQHKILLSKVAQEGSLRNFAIAPEFAEFAQFIAQYDAVIQVGGSNYVDLYGLTHFEYPLCAFMANKPIYMVGHSVGPFQNPDFNQLANYVFGRTSALILRETVSRDLMTAAQIDTRKVEQGVDTAWLVERRHDEFVASYAVQHWLDVTARRKTVAITLRDLEPFDKRLGTTQQAYEQAFAQVVNRLIADGYQVLALSTCTSIDRYNRDDRMVALRMAKYVNDSENFHIAMDELNDVEIGKILASCVLTIGTRLHSAIISMNFGTPAIAINYEHKSAGIMQQLGLAELAIDIRHLLNGSLQSVVADTLNQLPALKAKVANAVTEERAKGFTMIKSVLDRIREAQ, MGSDKIHHHHHHMKLLLTRPEGKNAAMASALDALAIPYLVEPLLSVEAAAVTQAQLDELSRADILIFISTSAVSFATPWLKDQWPKATYYAVGDATADALALQGITAERSPADSQATEGLLTLPSLEQVSGKQIVIVRGKGGREAMADGLRLRGANVSYLEVYQRACPPLDAPASVSRWQSFGIDTIVVTSGEVLENLINLVPKDSFAWLRDCHIIVPSARVETQARKKGLRRVTNAGAANQAAVLDALGM, MGSDKIHHHHHHMKLLMLCREPRLYSCQRLKESAEDNGHQIDILDPNRCLLKLSKNAPHFELYYQVNSKSEPYLLPDYDAIIPRFGSTSTRMGCAVLRHFRTKNIFCLNDDVAFLKARDKWLSLQLLTEQGIAVPNSALSGAEFSATQAILQIQSPTILKTLHGSQGIGVILAENRKSAVSIMETLTQADVPLLMQDFIQEAQGTDIRCFVIGDKVVATMQRIGQEDEFRANFHRGGSAEKIQLTEQEKVLALKATKCLGLDVAGVDLIRSKQGLLVLEVNASPGLEMIEKTSGIDIALQMIVHIEKQFKR, MGSDKIHHHHHHMKLNLAVFAYHLADYAPRLYDSEVHGLGIGDVRFIDRQETFLSESVYIGAWDKLQALIRPPSYVVCIGRDETTDRWLEKHGVKALILDSEVELNEVFERLQDIFQHYNRLESELLEAVLCKEPLNVLLNICAKFFANPTFITDAALCLVATCDNFAHPETDRAWQETIESGRSSSELLLLMKRKKLTNLLNTSRKAEFVNVGENYSKIICANYFDQEVRIATFTVSEAYTPLSPLQAGLVDHVAKLLTAEVRKQHKASSRYLFAIRSNISNLLHGQKIDGAILKTNFAHIGWTDQEDYRLLKIPLTAAELADGTAGHNRKIYESIFPHYVSLDLNEVLILVIRCARDTEADKRRFAELKKHLKNENAACGVSKTFHDFDMLGEEYKLANAALEIGSWKYPKEALYFYEDMMLEHLFSEGSRIFNLRSLCHDSVLRIAEHDQQNNSSLLQTLKVYLLQEKSLLAASQELHIHRNTLVYRLGKIEQISGLDLNSPLIRLQGILSCLILEYLNGLEEKAPD, MGSDKIHHHHHHMKMTFCRAVCLAAAFLLMGCDEAPETTTASPAAQVLEGKTMGTLWRVSVVGIDAKRAAELQTKIQTQLDADDWLLSTYKNDSALMRFNHSRSLAPWPVSEAMADIVTSALRIGAKTDGAMDITVGPLVNLWGFGPDRQPLHIPTPAQIDAAKAKTGLQHLQVIDRAGHQFLQKDLPDLYVDLSTVGEGYAADHLARLMEQEGIARYLVSVGGALSSRGMNAQGQPWRVAIQKPTDRENAVQAIVDINGHGISTSGSYRNYYELDGKRVSHVIDPQTGRPIEHNLVSVTVIAPTALEADGWDTGLMVLGTQKAQEVVRREGLAVFMIMKEGEGFKTWMSPQFKTFLVSDKN, MGSDKIHHHHHHMKPIATPDPIIAQAVKLFAERGYAETNLPSIAKAANVAVGTIYRHFKGKEDILNTAFTDIMDYFHDSLADAANCNVSDPESTFSHLFDAAALTMQHYPTELHFIEQNVFNEALRPESRAARDRVTTLISNMLMEGQEHGVIVKADVRTQLAILYGSIVSMIDIVWVQQQLQGHVPDQDQLALELKNQIWNGLTCERSIFQ, MGSDKIHHHHHHMKQPLYQQIIDYLQNEIDSGRLPVGAQVPTEKELSAQFNVSRITSKRALTELETQGVIQRHQGKGSFVQAPKHPLHTSLNKVLFLLPFADDLSVGNFYSGLAPTIQAAGLEVFMTSPNFLREKNAADIVNEFAGLVYYAATSNDYLDLLFELALMNFPVVVLDKKIHDLPFATIQSDNFAGGKTATERLIGLGHTKIGYILSGSPALQSVRQRYLGYLQALKEANLAFHTAITETNLLDEHNFKQYFEAHQLTAVVCDNDFSALHCLRNCKNLGIHVPEELSIIGFDDIQAAAFVEPPLTTMAQDFKEMGKLAGEVLLQTMQQDLQIIEDIQVPVTLIERETISTVSK
